The Human Domainome abundance scans (Beltran et al. 2025)

B1: Transcription factor SOX-11, residues 50 to 117; numbered along this chain, P35716 (parent)
chain: KRPMNAFMVWSKIERRKIMEQSPDMHNAEISKRLGKRWKMLKDSEKIPFIREAERLRLKHMADYPDYK

Variants of: B1
Assay: abundance fitness (aPCA) (normalised: wild type 0, dead -1); higher = more abundant; growth selection in yeast, the domain comes from the species named
Conditions: Homo sapiens

Abundance fitness of substitutions, site by site:
M25: Y -0.793
H26: A 0.158 | C 0.226 | D 0.414 | E 0.383 | F -0.497 | G 0.22 | I -0.266 | K 0.195 | L -0.146 | M -0.194 | N 0.277 | P 0.205 | Q 0.064 | R -0.106 | S 0.406 | T 0.453 | V -0.283 | W -0.388 | Y -0.368
N27: A 0.177 | C -0.08 | D 0.403 | E 0.333 | F -0.128 | G -0.096 | H 0.139 | K -0.178 | L -0.279 | M -0.287 | P 0.4 | Q 0.205 | R -0.341 | S 0.07 | T -0.033 | V -0.178 | W 0.105 | Y -0.213
A28: C -0.268 | D 0.205 | E -0.061 | F -0.47 | G -0.205 | H -0.183 | I -0.205 | K -0.278 | L -0.211 | M -0.529 | N -0.24 | P -0.562 | Q -0.247 | R -0.266 | T -0.134 | W -0.425 | Y -0.34
E29: A -0.436 | C -0.767 | G -0.792 | H -0.666 | I -0.815 | K -0.363 | L -0.798 | P -0.866 | Q -0.517 | R -1.1 | S -0.638 | T -0.753 | Y -0.969
I30: C -0.304 | D -0.779 | G -0.67 | H -0.733 | K -1.09 | M -0.711 | N -0.701 | P -0.708 | Q -0.797 | R -0.879 | S -0.682 | V 0.039 | W -0.611 | Y -0.596
S31: A 0.143 | C -0.2 | D 0.176 | E 0.489 | F -0.246 | G -0.278 | H -0.244 | K -0.096 | L -0.2 | M -0.333 | N 0.195 | P -0.855 | Q -0.213 | R -0.311 | T 0.029 | V -0.064 | W -0.3 | Y -0.262
K32: A 0 | D 0.047 | E 0.245 | F -0.329 | G -0.245 | H -0.036 | I -0.145 | L -0.175 | M -0.17 | N -0.185 | P -0.672 | Q -0.061 | S -0.253 | T -0.308 | V -0.101 | W -0.137
R33: A 0.22 | C 0.178 | D 0.169 | E 0.343 | F -0.001 | G -0.54 | H -0.008 | K -0.075 | L 0.438 | N -0.008 | P -0.75 | Q 0.465 | S 0 | T 0.367 | W 0.125 | Y 0.167
L34: A -0.938 | C -0.522 | D -0.685 | E -0.891 | F -0.68 | H -0.846 | K -1.29 | M -0.547 | N -0.82 | P -0.222 | Q -0.638 | R -0.763 | S -0.719 | V -0.531 | W -0.909 | Y -0.826
G35: A 0.152 | C 0.129 | D 0.25 | E 0.519 | H 0.266 | I 0.173 | K 0.484 | L 0.162 | M 0.17 | P -0.234 | Q 0.212 | R 0.142 | S 0.315 | T 0.262 | V 0.25 | W -0.207 | Y 0.126
K36: A 0.084 | C -0.166 | D 0.247 | F -0.149 | G -0.219 | H -0.036 | I 0.199 | L 0.034 | M -0.047 | N 0.094 | P -0.868 | R -0.011 | T 0.155 | V 0.052 | W -0.535 | Y 0.041
R37: A 0.117 | C -0.346 | D -0.27 | E 0.188 | F -0.764 | G 0.01 | H -0.129 | I -0.123 | K -0.039 | L -0.085 | M -0.058 | N 0.001 | P -1.13 | Q 0.073 | T 0.205 | V -0.271 | W -0.418 | Y -0.59
W38: A -0.568 | C -0.644 | D -0.696 | E -1.27 | F -0.801 | G -0.865 | H -0.851 | I -0.716 | K -0.375 | L -0.994 | M -0.717 | N -0.914 | P -1 | Q -0.068 | R -0.653 | S -0.59 | T -1.05 | V -0.766 | Y -0.641
K39: C -0.452 | D 0.008 | E -0.075 | F -0.455 | G -0.084 | H -0.473 | L -0.274 | M -0.211 | N -0.045 | P -0.868 | Q 0.05 | R -0.119 | S -0.148 | V -0.395 | W -1.03 | Y -0.683
M40: C -0.191 | D 0.111 | E 0.354 | F -0.404 | H -0.119 | I -0.605 | K 0.29 | L 0.011 | N -0.022 | P -0.711 | Q 0.361 | R -0.372 | S 0.023 | T -0.05 | V -0.665 | W -0.503 | Y -0.383
L41: A -0.671 | C -0.876 | D -0.849 | E -1.04 | F -0.791 | G -0.702 | H -0.951 | I -0.652 | K -0.666 | N -0.849 | P -1.14 | Q -0.721 | R -0.762 | S -0.604 | V -0.53 | W -0.867 | Y -0.753
K42: A -0.058 | C -0.424 | D -0.263 | E -0.387 | F -0.673 | G -0.221 | H -0.235 | I -0.526 | L -0.315 | M -0.161 | N 0.051 | P 0.021 | R -0.278 | V -0.431 | W -0.706 | Y -0.525
D43: C -0.448 | E -0.127 | F -0.047 | G -0.402 | H -0.129 | I -0.272 | K -0.205 | L -0.077 | M -0.079 | P 0.009 | S -0.339 | V -0.397 | Y -0.191
S44: C -0.089 | D 0.169 | E 0.274 | F -0.132 | G -0.208 | H -0.053 | I 0.005 | K -0.492 | M -0.362 | N -0.29 | P -0.752 | Q 0.585 | R -0.24 | T -0.215 | W -0.037 | Y -0.024
E45: C -0.548 | F -0.297 | G -1.04 | H -0.45 | I -0.336 | K -0.667 | L -0.221 | M -0.314 | N -0.439 | P -0.918 | Q -0.282 | R -0.891 | S -0.828 | T -0.942 | V -0.425 | W -0.447 | Y -0.395
K46: A -0.871 | C -0.848 | D -0.777 | E -0.74
